Molecular target: soluble HLA-E-VL9, HLA-E*01:03 heavy chain refolded with β2-microglobulin and synthetic VL9 peptide (human | )
Test: SPR

B1: 3H4 IgG, recombinant 3H4 in a human IgG1 backbone (antibody, V domains shown)
VH: EVQLQESGPELVKPGASVKIPCKASGYTFTDYNMDWVKQSHGKSLEWIGDINPNNGGTIYNQKFKGKATLTVDKSSSTAYMELRSLTSEDTAVYYCARPDYYGSSYGWYFDVWGTGTTVTVSS
VL: DIVITQSPSSMYASLGERVTITCKASQDINSYLSWFQQKPGKSPKTLIYRANRLVDGVPSRFSGSGSGQDYSLTISSLEYEDMGIYYCLQYDEFPLTFGAGTKLELK
Q: B1 was tested. Which koff did it give?
A: Its koff is 0.51 s⁻¹.

— paper PMC8960791 (2022)
